# Earlier results, collected in paper PMC11231438.
# Biological target: plasminogen (Homo sapiens) (UniProt P00747)
# Sequence of UniProt P00747 (P00747 20-810): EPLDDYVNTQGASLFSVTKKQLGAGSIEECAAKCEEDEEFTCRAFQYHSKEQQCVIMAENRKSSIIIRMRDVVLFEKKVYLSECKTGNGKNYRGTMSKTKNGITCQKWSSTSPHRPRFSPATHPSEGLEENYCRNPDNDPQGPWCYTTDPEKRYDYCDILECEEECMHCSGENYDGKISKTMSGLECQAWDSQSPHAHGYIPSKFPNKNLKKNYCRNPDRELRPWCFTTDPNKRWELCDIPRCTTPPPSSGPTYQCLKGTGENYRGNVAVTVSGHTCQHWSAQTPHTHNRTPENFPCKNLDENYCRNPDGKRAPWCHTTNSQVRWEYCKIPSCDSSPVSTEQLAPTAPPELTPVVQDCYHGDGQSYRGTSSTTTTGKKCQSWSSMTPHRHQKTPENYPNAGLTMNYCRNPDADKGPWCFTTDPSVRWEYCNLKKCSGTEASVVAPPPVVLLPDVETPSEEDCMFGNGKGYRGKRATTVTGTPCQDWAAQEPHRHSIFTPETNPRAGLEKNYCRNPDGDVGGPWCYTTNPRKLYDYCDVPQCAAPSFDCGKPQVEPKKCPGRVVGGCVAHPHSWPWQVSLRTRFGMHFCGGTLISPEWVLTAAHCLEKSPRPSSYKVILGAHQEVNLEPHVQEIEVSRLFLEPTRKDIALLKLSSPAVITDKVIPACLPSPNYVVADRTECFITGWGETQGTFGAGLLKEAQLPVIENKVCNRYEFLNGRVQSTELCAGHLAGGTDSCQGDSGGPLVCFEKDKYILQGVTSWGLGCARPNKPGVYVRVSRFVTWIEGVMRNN
substance,measurement,value
enolase (from UniProt Q96X30),Kd,530 nM
